IntAct's records for PubMed 31515488

B1: Tuftelin-interacting protein 11 (Homo sapiens), Q9UBB9 (parent)
chain: MSLSHLYRDGEGRIDDDDDERENFEITDWDLQNEFNPNRQRHWQTKEEATYGVWAERDSDDERPSFGGKRARDYSAPVNFISAGLKKGAAEEAELEDSDDEEKPVKQDDFPKDFGPRKLKTGGNFKPSQKGFAGGTKSFMDFGSWERHTKGIGQKLLQKMGYVPGRGLGKNAQGIINPIEAKQRKGKGAVGAYGSERTTQSMQDFPVVDSEEEAEEEFQKELSQWRKDPSGSKKKPKYSYKTVEELKAKGRISKKLTAPQKELSQVKVIDMTGREQKVYYSYSQISHKHNVPDDGLPLQSQQLPQSGKEAKAPGFALPELEHNLQLLIDLTEQEIIQNDRQLQYERDMVVNLFHELEKMTEVLDHEERVISNLSKVLEMVEECERRMQPDCSNPLTLDECARIFETLQDKYYEEYRMSDRVDLAVAIVYPLMKEYFKEWDPLKDCTYGTEIISKWKSLLENDQLLSHGGQDLSADAFHRLIWEVWMPFVRNIVTQWQPRNCDPMVDFLDSWVHIIPVWILDNILDQLIFPKLQKEVENWNPLTDTVPIHSWIHPWLPLMQARLEPLYSPIRSKLSSALQKWHPSDSSAKLILQPWKDVFTPGSWEAFMVKNIVPKLGMCLGELVINPHQQHMDAFYWVIDWEGMISVSSLVGLLEKHFFPKWLQVLCSWLSNSPNYEEITKWYLGWKSMFSDQVLAHPSVKDKFNEALDIMNRAVSSNVGAYMQPGARENIAYLTHTERRKDFQYEAMQERREAENMAQRGIGVAASSVPMNFKDLIETKAEEHNIVFMPVIGKRHEGKQLYTFGRIVIYIDRGVVFVQGEKTWVPTSLQSLIDMAK
partner: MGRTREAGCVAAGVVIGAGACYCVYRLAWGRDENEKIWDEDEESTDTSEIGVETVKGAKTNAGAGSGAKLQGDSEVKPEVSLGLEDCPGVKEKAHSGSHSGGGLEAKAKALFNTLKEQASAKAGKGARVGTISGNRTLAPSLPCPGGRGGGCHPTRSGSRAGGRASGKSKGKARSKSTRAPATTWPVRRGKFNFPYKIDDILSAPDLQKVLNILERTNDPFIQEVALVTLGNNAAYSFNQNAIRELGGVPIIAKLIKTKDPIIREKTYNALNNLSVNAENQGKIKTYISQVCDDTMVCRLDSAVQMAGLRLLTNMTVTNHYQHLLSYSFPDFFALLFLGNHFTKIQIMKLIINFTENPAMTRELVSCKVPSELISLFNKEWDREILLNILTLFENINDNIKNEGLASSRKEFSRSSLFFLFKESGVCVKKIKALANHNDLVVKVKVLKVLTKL
B2: NAD kinase (Homo sapiens), O95544 (parent)
chain: MEMEQEKMTMNKELSPDAAAYCCSACHGDETWSYNHPIRGRAKSRSLSASPALGSTKEFRRTRSLHGPCPVTTFGPKACVLQNPQTIMHIQDPASQRLTWNKSPKSVLVIKKMRDASLLQPFKELCTHLMEENMIVYVEKKVLEDPAIASDESFGAVKKKFCTFREDYDDISNQIDFIICLGGDGTLLYASSLFQGSVPPVMAFHLGSLGFLTPFSFENFQSQVTQVIEGNAAVVLRSRLKVRVVKELRGKKTAVHNGLGENGSQAAGLDMDVGKQAMQYQVLNEVVIDRGPSSYLSNVDVYLDGHLITTVQGDGVIVSTPTGSTAYAAAAGASMIHPNVPAIMITPICPHSLSFRPIVVPAGVELKIMLSPEARNTAWVSFDGRKRQEIRHGDSISITTSCYPLPSICVRDPVSDWFESLAQCLHWNVRKKQAHFEEEEEEEEEG
partner: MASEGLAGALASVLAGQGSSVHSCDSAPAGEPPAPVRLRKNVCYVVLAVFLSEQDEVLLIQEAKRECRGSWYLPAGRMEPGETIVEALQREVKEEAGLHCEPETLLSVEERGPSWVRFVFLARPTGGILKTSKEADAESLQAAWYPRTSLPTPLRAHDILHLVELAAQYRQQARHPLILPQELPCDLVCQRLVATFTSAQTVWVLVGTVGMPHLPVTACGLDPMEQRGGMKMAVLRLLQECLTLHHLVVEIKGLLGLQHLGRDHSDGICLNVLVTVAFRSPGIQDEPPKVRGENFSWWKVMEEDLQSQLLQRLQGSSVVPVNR
B3: U3 small nucleolar RNA-associated protein 14 homolog A (Homo sapiens), Q9BVJ6 (parent)
chain: MTANRLAESLLALSQQEELADLPKDYLLSESEDEGDNDGERKHQKLLEAISSLDGKNRRKLAERSEASLKVSEFNVSSEGSGEKLVLADLLEPVKTSSSLATVKKQLSRVKSKKTVELPLNKEEIERIHREVAFNKTAQVLSKWDPVVLKNRQAEQLVFPLEKEEPAIAPIEHVLSGWKARTPLEQEIFNLLHKNKQPVTDPLLTPVEKASLRAMSLEEAKMRRAELQRARALQSYYEAKARREKKIKSKKYHKVVKKGKAKKALKEFEQLRKVNPAAALEELEKIEKARMMERMSLKHQNSGKWAKSKAIMAKYDLEARQAMQEQLSKNKELTQKLQVASESEEEEGGTEDVEELLVPDVVNEVQMNADGPNPWMLRSCTSDTKEAATQEDPEQLPELEAHGVSESEGEERPVAEEEILLREFEERRSLRKRSELSQDAEPAGSQETKDSGSQEVLSELRVLSQKLKENHQSRKQKASSEGTIPQVQREEPAPEEEEPLLLQRPERVQTLEELEELGKEECFQNKELPRPVLEGQQSERTPNNRPDAPKEKKKKEQMIDLQNLLTTQSPSVKSLAVPTIEELEDEEERNHRQMIKEAFAGDDVIRDFLKEKREAVEASKPKDVDLTLPGWGEWGGVGLKPSAKKRRRFLIKAPEGPPRKDKNLPNVIINEKRNIHAAAHQVRVLPYPFTHHWQFERTIQTPIGSTWNTQRAFQKLTTPKVVTKPGHIINPIKAEDVGYRSSSRSDLSVIQRNPKRITTRHKKQLKKCSVD
B4: Notch homolog 2 N-terminal-like protein A (Homo sapiens), Q7Z3S9 (parent)
chain: MCVTYHNGTGYCKCPEGFLGEYCQHRDPCEKNRCQNGGTCVAQAMLGKATCRCASGFTGEDCQYSTSHPCFVSRPCLNGGTCHMLSRDTYECTCQVGFTGKECQWTDACLSHPCANGSTCTTVANQFSCKCLTGFTGQKCETDVNECDIPGHCQHGGTCLNLPGSYQCQCLQGFTGQYCDSLYVPCAPSPCVNGGTCRQTGDFTFECNCLPETVRRGTELWERDREVWNGKEHDEN
partner: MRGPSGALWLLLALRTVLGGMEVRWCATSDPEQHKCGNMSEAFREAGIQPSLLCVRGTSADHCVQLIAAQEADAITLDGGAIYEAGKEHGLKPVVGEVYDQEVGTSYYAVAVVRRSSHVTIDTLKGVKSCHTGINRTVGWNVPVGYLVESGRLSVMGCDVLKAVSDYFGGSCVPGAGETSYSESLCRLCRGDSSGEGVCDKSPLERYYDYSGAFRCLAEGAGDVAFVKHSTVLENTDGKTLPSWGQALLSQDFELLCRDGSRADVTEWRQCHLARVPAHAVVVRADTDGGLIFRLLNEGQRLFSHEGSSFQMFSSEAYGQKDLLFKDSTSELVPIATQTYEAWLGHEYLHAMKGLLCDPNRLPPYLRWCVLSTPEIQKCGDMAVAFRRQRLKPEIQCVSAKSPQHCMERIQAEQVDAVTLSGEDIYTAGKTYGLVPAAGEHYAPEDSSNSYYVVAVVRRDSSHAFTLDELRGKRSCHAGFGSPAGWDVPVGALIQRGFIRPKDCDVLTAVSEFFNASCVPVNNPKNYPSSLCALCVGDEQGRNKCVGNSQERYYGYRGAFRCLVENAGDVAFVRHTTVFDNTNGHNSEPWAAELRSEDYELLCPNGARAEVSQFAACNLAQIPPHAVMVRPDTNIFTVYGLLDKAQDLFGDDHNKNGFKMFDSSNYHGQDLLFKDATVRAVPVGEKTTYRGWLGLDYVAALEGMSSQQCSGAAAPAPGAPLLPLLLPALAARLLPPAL
B5: Max-like protein X (Homo sapiens), Q9UH92 (parent)
chain: MTEPGASPEDPWVKASPVGAHAGEGRAGRARARRGAGRRGASLLSPKSPTLSVPRGCREDSSHPACAKVEYAYSDNSLDPGLFVESTRKGSVVSRANSIGSTSASSVPNTDDEDSDYHQEAYKESYKDRRRRAHTQAEQKRRDAIKRGYDDLQTIVPTCQQQDFSIGSQKLSKAIVLQKTIDYIQFLHKEKKKQEEEVSTLRKDVTALKIMKVNYEQIVKAHQDNPHEGEDQVSDQVKFNVFQGIMDSLFQSFNASISVASFQELSACVFSWIEEHCKPQTLREIVIGVLHQLKNQLY
B6: Melanoma-associated antigen 4 (Homo sapiens), P43358 (parent)
chain: MSSEQKSQHCKPEEGVEAQEEALGLVGAQAPTTEEQEAAVSSSSPLVPGTLEEVPAAESAGPPQSPQGASALPTTISFTCWRQPNEGSSSQEEEGPSTSPDAESLFREALSNKVDELAHFLLRKYRAKELVTKAEMLERVIKNYKRCFPVIFGKASESLKMIFGIDVKEVDPASNTYTLVTCLGLSYDGLLGNNQIFPKTGLLIIVLGTIAMEGDSASEEEIWEELGVMGVYDGREHTVYGEPRKLLTQDWVQENYLEYRQVPGSNPARYEFLWGPRALAETSYVKVLEHVVRVNARVRIAYPSLREAALLEEEEGV
partner: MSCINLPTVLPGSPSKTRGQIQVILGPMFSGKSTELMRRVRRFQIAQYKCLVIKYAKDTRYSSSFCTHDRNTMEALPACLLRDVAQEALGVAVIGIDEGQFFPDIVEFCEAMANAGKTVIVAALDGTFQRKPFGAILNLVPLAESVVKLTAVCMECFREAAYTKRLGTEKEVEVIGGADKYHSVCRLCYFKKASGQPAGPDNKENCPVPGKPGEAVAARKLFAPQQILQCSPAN
B7: 5'-AMP-activated protein kinase subunit beta-2 (Homo sapiens), O43741 (parent)
chain: MGNTTSDRVSGERHGAKAARSEGAGGHAPGKEHKIMVGSTDDPSVFSLPDSKLPGDKEFVSWQQDLEDSVKPTQQARPTVIRWSEGGKEVFISGSFNNWSTKIPLIKSHNDFVAILDLPEGEHQYKFFVDGQWVHDPSEPVVTSQLGTINNLIHVKKSDFEVFDALKLDSMESSETSCRDLSSSPPGPYGQEMYAFRSEERFKSPPILPPHLLQVILNKDTNISCDPALLPEPNHVMLNHLYALSIKDSVMVLSATHRYKKKYVTTLLYKPI

Variants of: B1
Settings: with armx1_human ARMCX1, Q9P291

Variant	effect of a mutation on the interaction
R8Q	with no effect
S688L	with no effect

Variants of: B2
Settings: with nud18_human NUDT18, Q6ZVK8

Variant	effect of a mutation on the interaction
R249W	with no effect

Variants of: B3
Settings: with ldoc1_human LDOC1, O95751
ldoc1_human LDOC1, O95751, sequence (O95751 whole entry): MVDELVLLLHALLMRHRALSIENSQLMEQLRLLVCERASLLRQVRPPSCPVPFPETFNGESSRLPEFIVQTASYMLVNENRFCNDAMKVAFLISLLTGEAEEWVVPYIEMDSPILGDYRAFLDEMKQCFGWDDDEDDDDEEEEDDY

Variant	effect of a mutation on the interaction
T579A	with no effect
V487A	with no effect

Variants of: B3
Settings: with cep70_human CEP70, Q8NHQ1
cep70_human CEP70, Q8NHQ1, sequence (Q8NHQ1 whole entry): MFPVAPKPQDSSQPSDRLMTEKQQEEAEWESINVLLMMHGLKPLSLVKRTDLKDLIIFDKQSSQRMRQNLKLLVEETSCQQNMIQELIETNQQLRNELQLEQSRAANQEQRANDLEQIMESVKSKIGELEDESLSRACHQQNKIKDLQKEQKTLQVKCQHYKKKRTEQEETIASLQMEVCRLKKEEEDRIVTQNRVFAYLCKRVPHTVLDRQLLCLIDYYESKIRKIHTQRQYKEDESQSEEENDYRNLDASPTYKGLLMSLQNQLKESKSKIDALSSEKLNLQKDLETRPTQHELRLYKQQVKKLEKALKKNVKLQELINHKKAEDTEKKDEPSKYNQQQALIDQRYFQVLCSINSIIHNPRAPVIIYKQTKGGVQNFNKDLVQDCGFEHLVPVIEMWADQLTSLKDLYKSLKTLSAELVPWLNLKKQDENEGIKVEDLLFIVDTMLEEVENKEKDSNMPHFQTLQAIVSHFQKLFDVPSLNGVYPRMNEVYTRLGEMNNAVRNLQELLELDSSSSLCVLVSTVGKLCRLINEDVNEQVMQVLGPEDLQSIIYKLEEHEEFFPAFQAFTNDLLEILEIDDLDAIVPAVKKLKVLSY

Variant	effect of a mutation on the interaction
V256M	with no effect

Variants of: B4
Settings: with trfm_human MELTF

Variant	effect of a mutation on the interaction
A115T	with no effect
R74Q	with no effect

Variants of: B5
Settings: with gbrl2_human GABARAPL2, P60520
gbrl2_human GABARAPL2, P60520, sequence (P60520 whole entry): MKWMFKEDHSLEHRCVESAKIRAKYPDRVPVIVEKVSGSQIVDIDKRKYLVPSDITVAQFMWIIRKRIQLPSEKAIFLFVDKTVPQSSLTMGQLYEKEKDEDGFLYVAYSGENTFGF

Variant	effect of a mutation on the interaction
Q223R	with no effect

Variants of: B6
Settings: with kith_human TK1, P04183

Variant	effect of a mutation on the interaction
S41F	with no effect

Variants of: B7
Settings: with oxda_human DAO

Variant	effect of a mutation on the interaction
G55E	with no effect

Variants of: B7
Settings: with mdfi_human MDFI

Variant	effect of a mutation on the interaction
G55E	with no effect

Variants of: B7
Settings: with crx_human CRX

Variant	effect of a mutation on the interaction
G55E	with no effect

Variants of: B7
Settings: with cdx4_human CDX4, O14627
cdx4_human CDX4, O14627, sequence (O14627 whole entry): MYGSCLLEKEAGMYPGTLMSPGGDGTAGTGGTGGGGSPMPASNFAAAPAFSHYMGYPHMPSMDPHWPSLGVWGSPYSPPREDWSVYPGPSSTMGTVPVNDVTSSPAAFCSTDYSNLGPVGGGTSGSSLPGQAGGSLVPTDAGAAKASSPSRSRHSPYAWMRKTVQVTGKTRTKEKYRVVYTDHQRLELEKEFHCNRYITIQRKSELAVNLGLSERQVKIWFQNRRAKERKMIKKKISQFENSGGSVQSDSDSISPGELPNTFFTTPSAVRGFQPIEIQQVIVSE

Variant	effect of a mutation on the interaction
G55E	with no effect
